# Assay results as given in article doi:10.1101/2025.06.24.661301.
# Like-named read-outs stand apart in the source and are kept apart here.
# Legend:
# Arp2/3 complex (human) [1] = target: Arp2/3 complex (human) (UniProt P61158); assay: SPR
# Arp2/3 complex (human) [2] = target: Arp2/3 complex (human) (UniProt P61158); assay: SPR; remark: listed apart in the source
Substance,Kd (Arp2/3 complex (human) [1]) [µM],Kd (Arp2/3 complex (human) [2]) [µM]
Arpin CT peptide (residues 192-226) (from UniProt Q7Z6K5-1 192-226),17.8,
human Arpin with the double-site alanine substitution F95A/M97A (from UniProt Q7Z6K5-1 1-226) (natural protein),63.1,
full-length Arpin (SEC fractions used in SPR) (from UniProt Q7Z6K5-1 1-226) (natural protein),14.1,48.9
GST-aCT (chimeric protein with Arpin's CT fused to the C-terminus of glutathione S-transferase through the spacer -GSSG-),2.5,
